The values below come from US20050272653A1 (ACCELERON PHARMA, published 2005).

The experiment has as its target T1, BSA (bovine, UniProt P02769 25-607).
T1 construct: Control analyte in the BiaCore experiment
In words: BiaCore CM5 chip, BMP3 pro-MuIgG2a amine coupled, BSA flowed over. For orientation: In SPR one partner is held on a chip, and binding of the other changes the refractive index at the surface.

T1 sequence (P02769 25-607 limits assumed): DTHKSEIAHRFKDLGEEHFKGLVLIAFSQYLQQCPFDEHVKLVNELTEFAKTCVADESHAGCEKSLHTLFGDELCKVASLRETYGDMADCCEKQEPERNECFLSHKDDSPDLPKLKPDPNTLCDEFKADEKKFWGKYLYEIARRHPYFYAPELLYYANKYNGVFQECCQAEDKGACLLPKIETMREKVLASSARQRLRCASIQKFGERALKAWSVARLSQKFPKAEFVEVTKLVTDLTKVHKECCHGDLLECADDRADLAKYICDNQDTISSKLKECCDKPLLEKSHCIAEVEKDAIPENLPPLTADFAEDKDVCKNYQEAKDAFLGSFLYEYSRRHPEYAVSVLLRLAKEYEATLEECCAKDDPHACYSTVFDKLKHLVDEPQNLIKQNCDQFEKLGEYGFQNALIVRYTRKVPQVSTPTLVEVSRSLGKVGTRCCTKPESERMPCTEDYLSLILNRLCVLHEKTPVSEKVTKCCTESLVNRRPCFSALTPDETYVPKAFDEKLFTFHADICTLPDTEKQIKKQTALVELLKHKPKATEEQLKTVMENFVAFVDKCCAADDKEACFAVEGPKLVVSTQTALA

B1: BMP3A propeptide-Murine IgG2a peptide Fc fusion protein (Fc fusion)
chain: ERPKPPFPELRKAVPGDRTAGGGPDSELQPQDKVSEHMLRLYDRYSTVQAARTPGSLEGGSQPWRPRLLREGNTVRSFRAAAAETLERKGLYIFNLTSLTKSENILSATLYFCIGELGNISLSCPVSGGCSHHAQRKHIQIDLSAWTLKFSRNQSQLLGHLSVDMAKSHRDIMSWLSKDITQFLRKAKENEEFLIGFNITSKGRQLPKRRLPFPEPYILVYANDAAISEPESVVSSLQGHRNFPTGTVPKWDSHIRAALSIERRKKRSTGVLLPLQNNELPGAEYQYKKDEVWEERKPYKTLQAQAPEKSKNKKKQRKGPHRKSQTLQFDEQTLKKARRK
notes: Expressed in HEK293 cells and purified on Protein A; highly glycosylated; also called BMP3 pro-MuIgG2a; BMP3 pro-MuIg2a; not shown: murine IgG2a Fc
Take B1: the binding result is recorded as “no binding”.
